# Reference: patent US20050282743A1, “Molecular interactions in cells” (Arbor Vita Corporation, priority 2001, published 2005)
# T1: GST-KIAA0807(S) PDZ domain 1 (Homo sapiens (Human)), Q6P0Q8
# T1 chain: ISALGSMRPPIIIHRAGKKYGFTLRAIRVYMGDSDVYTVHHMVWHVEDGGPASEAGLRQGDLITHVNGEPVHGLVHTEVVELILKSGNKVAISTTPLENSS
# T2: GST-KIAA1634 PDZ domain 2 (Homo sapiens (Human)), Q5TCQ9
# T2 chain: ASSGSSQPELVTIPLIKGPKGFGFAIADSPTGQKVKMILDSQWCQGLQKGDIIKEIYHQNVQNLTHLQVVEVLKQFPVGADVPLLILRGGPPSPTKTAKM
# T3: GST-NeDLG PDZ domains 1, 2, Q92796
# T3 chain: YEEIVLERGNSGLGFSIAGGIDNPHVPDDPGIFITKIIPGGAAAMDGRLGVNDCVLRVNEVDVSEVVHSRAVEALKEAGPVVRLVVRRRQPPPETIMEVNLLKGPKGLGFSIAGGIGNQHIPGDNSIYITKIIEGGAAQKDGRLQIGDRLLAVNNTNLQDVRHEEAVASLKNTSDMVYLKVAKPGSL
# T4: GST-PTPL1 PDZ domain 2 (Homo sapiens (Human)), Q12923
# T4 chain: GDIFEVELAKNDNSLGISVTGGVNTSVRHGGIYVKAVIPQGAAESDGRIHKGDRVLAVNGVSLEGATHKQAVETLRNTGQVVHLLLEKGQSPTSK
# T5: GST-PTPL1 PDZ domain 4 (Homo sapiens (Human)), Q12923
# T5 chain: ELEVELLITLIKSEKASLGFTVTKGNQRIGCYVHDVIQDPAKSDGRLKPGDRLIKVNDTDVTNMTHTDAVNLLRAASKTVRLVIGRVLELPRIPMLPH
# T6: GST-KIAA0973 PDZ domain 1 (Homo sapiens (Human)), Q9Y2H9
# T6 chain: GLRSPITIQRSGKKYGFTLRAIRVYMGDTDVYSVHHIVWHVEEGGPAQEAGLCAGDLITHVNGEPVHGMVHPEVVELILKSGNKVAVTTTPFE
# T7: GST-INADL PDZ domain 8 (Homo sapiens (Human)), Q8NI35
# T7 chain: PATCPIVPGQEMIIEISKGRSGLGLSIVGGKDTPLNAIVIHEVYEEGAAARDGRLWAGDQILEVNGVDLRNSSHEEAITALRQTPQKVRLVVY
# T8: GST-MUPP1 PDZ domain 10 (Homo sapiens (Human)), O75970
# T8 chain: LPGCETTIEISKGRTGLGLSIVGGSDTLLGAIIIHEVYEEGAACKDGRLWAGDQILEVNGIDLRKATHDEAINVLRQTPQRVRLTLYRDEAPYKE
# T9: GST-KIAA1526 PDZ domain 1 (Homo sapiens (Human)), Q9P202
# T9 chain: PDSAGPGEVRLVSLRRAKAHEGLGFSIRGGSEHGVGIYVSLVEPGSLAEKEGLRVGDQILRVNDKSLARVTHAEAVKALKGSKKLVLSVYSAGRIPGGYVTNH
# T10: GST-LIM-RIL PDZ domain 1 (Homo sapiens (Human)), P50479
# T10 chain: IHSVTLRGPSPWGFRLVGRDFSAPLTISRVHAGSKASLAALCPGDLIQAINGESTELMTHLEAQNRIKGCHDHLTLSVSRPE
# T11: GST-MINT1 PDZ domain 2 (Mus musculus (Mouse)), B2RUJ5
# T11 chain: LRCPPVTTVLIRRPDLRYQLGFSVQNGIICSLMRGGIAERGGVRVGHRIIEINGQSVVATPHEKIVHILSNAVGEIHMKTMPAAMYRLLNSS
# T12: GST-APXL-1 PDZ domain 1 (Homo sapiens (Human)), Q13796
# T12 chain: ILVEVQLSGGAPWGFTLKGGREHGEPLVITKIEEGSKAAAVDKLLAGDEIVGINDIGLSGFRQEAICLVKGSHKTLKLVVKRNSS
# T13: GST-Shank 1 PDZ domain 1 (Homo sapiens (Human)), Q9UPX8
# T13 chain: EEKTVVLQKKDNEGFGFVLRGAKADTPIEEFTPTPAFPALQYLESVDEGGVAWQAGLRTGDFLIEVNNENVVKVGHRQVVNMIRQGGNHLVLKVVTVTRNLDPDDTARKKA
# T14: GST-MINT1 PDZ domains 1, 2, Q02410
# T14 chain: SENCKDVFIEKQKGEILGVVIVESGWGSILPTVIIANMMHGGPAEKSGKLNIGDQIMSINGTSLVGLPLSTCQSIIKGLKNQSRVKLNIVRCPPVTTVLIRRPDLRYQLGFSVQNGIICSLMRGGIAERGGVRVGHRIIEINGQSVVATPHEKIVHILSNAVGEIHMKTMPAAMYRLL
# T15: GST-TIP1 PDZ domain 1 (Table 9 insert) (Homo sapiens (Human)), O14907
# T15 chain: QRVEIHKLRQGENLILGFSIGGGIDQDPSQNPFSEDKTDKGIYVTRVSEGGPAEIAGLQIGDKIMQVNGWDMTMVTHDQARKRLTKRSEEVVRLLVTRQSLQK
# T16: GST-AIPC PDZ domain 1 (Homo sapiens (Human)), O15018
# T16 chain: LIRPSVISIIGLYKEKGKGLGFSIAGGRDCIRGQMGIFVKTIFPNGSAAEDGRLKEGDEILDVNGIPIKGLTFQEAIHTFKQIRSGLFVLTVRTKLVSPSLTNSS
# T17: GST-KIAA0382 PDZ domain 1 (Canis lupus familiaris (Dog) (Canis familiaris)), A0A8I3
# T17 chain: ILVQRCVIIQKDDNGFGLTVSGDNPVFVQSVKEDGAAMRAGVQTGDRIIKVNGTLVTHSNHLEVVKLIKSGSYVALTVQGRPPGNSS
# T18: GST-DLG1 PDZ domain 2 (Homo sapiens), Q12959
# T18 chain: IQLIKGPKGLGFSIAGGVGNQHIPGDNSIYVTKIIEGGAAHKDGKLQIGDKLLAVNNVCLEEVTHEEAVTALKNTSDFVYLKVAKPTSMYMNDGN
# B1: alpha-1-syntrophin (peptide)
# peptide: IVFIIHSFLSAKVTRLGLLA
# modifications: not checked
# B2: NMDA R2C (peptide)
# peptide: HPTDITGLPNLSDPSVSTVV
# modifications: not checked
# B3: C5 Anaphylatoxin receptor (peptide)
# peptide: ESKSFTRSTVDTMAQKTQAV
# modifications: not checked
# B4: TRAF2 (peptide)
# peptide: NSYVRDDAIFIKAIVDLTGL
# modifications: not checked
# B5: serotonin receptor 5-HT-2C (peptide)
# peptide: ENLELPVNPSSVVSERISSV
# modifications: not checked
# B6: GAIP (G-alpha interacting protein) RGS 19 (peptide)
# peptide: SSPTYRALLLQGPSQSSSEA
# modifications: not checked
# B7: CD6 (peptide)
# peptide: SPQPDSTDNDDYDDISAA
# modifications: not checked
# B8: c-kit receptor (peptide)
# peptide: INSVGSTASSSQPLLVHDDV
# modifications: not checked
# B9: RhoGAP 1 (PTPL1-associated) (peptide)
# peptide: PRLKRMQQFEDLEDEIPQFV
# modifications: not checked
# B10: parathyroid hormone receptor 2 (peptide)
# peptide: RPMESNPDTEGAQGETEDVL
# modifications: not checked
# B11: claudin 1 (peptide)
# peptide: SYPTPRPYPKPAPSSGKDYV
# modifications: not checked
# B12: RA-GEF (ras/rap1A-assoc-GEF) (peptide)
# peptide: PYQSQGFSTEEDEDEQVSAV
# modifications: not checked
# B13: Clasp-5 (peptide)
# peptide: RDSFHRSSFRKAETQLSQGS
# modifications: not checked
# B14: claudin 18 (peptide)
# peptide: DGGARTEDEVQSYPSKHDYV
# modifications: not checked
# B15: ropporin (peptide)
# peptide: GPDGIITVNDFTQNPRVQLE
# modifications: not checked
# B16: CAPON (carboxyl-terminal PDZ ligand of neuronal nitric oxide synthase) mRNA (peptide)
# peptide: LLNVLQRQELGDGLDDEIAV
# modifications: not checked
# B17: CFTCR (cystic fibrosis transmembrane conductance regulator) (peptide)
# peptide: KPQIAALKEETEEEVQDTRL
# modifications: not checked
# B18: claudin 10 (peptide)
# peptide: GGEDFKTTNPSKQFDKNAYV
# modifications: not checked
# B19: CDw128B (peptide)
# peptide: KDSRPSFVGSSSGHTSTTL
# modifications: not checked
# B20: claudin 7 (peptide)
# peptide: KAGYRAPRSYPKSNSSKEYV
# modifications: not checked
# B21: GLUR7 (metabotropic glutamate receptor) (peptide)
# peptide: VDPNSPAAKKKYVSYNNLVI
# modifications: not checked
# B22: Clasp-1 (peptide)
# peptide: VISKATPALPTVSISSSAEV
# modifications: not checked
# B23: muscarinic Ach receptor M4 (peptide)
# peptide: QQYQQRQSVIFHKRAPEQAL
# modifications: not checked
# B24: claudin 9 (peptide)
# peptide: LGYSIPSRSGASGLDKRDYV
# modifications: not checked
# Assays:
# Experiment in all cases: G' assay
# [1] = biological target: T1, GST-KIAA0807(S) PDZ domain 1 (Homo …)
# [2] = biological target: GST-DLG1 PDZ domains 1, 2 (Homo sapiens), Q12959
# [3] = biological target: T2, GST-KIAA1634 PDZ domain 2 (Homo sapiens …)
# [4] = biological target: T3, GST-NeDLG PDZ domains 1, 2, Q92796
# [5] = biological target: GST-PSD95 PDZ domains 1, 2, 3 (Homo sapiens), P78352
# [6] = biological target: T4, GST-PTPL1 PDZ domain 2 (Homo sapiens …)
# [7] = biological target: T5, GST-PTPL1 PDZ domain 4 (Homo sapiens …)
# [8] = biological target: T6, GST-KIAA0973 PDZ domain 1 (Homo sapiens …)
# [9] = biological target: GST-KIAA807 [GST: P08515]
# [10] = biological target: T7, GST-INADL PDZ domain 8 (Homo sapiens …)
# [11] = biological target: T8, GST-MUPP1 PDZ domain 10 (Homo sapiens …)
# [12] = biological target: T9, GST-KIAA1526 PDZ domain 1 (Homo sapiens …)
# [13] = biological target: T10, GST-LIM-RIL PDZ domain 1 (Homo sapiens …)
# [14] = biological target: T11, GST-MINT1 PDZ domain 2 (Mus musculus …)
# [15] = biological target: T12, GST-APXL-1 PDZ domain 1 (Homo sapiens …)
# [16] = biological target: GST-PAR3 PDZ domain 3 (Homo sapiens (Human)), Q8TEW0
# [17] = biological target: GST-KIAA0147 PDZ domain 1 (Homo sapiens (Human)), Q14160
# [18] = biological target: GST-BAI-1 Associated Protein PDZ domain 2 (Mus musculus (Mouse)), Q6RHR9
# [19] = biological target: T13, GST-Shank 1 PDZ domain 1 (Homo sapiens …)
# [20] = biological target: T14, GST-MINT1 PDZ domains 1, 2, Q02410
# [21] = biological target: T15, GST-TIP1 PDZ domain 1 (Table 9 insert) …
# [22] = biological target: T16, GST-AIPC PDZ domain 1 (Homo sapiens …)
# [23] = biological target: GST-KIAA1634 PDZ domain 1 (Homo sapiens (Human)), Q5TCQ9
# [24] = biological target: T17, GST-KIAA0382 PDZ domain 1 (Canis lupus …)
# [25] = biological target: T18, GST-DLG1 PDZ domain 2 (Homo sapiens), …
# Also: key of the grades not given here.
# Sequence of GST-KIAA807 [GST: P08515] (P08515 whole entry, the tested form may be a part): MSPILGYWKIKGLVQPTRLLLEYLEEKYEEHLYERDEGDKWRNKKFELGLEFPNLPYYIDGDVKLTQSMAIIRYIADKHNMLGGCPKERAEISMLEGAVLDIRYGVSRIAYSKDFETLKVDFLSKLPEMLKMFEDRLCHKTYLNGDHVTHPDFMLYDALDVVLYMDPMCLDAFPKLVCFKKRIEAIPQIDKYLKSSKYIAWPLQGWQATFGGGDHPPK
# Sequence of GST-PAR3 PDZ domain 3 (Homo sapiens (Human)), Q8TEW0 (Q8TEW0 579-681): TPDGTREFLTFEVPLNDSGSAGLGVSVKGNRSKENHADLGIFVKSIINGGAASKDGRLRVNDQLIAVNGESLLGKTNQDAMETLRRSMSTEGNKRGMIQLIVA
# Sequence of GST-KIAA1634 PDZ domain 1 (Homo sapiens (Human)), Q5TCQ9 (Q5TCQ9 401-502): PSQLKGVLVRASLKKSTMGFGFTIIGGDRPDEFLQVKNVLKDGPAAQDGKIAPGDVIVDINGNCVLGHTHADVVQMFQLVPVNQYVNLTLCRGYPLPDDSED
# Sequence of GST-PSD95 PDZ domains 1, 2, 3 (Homo sapiens), P78352 (P78352 62-395): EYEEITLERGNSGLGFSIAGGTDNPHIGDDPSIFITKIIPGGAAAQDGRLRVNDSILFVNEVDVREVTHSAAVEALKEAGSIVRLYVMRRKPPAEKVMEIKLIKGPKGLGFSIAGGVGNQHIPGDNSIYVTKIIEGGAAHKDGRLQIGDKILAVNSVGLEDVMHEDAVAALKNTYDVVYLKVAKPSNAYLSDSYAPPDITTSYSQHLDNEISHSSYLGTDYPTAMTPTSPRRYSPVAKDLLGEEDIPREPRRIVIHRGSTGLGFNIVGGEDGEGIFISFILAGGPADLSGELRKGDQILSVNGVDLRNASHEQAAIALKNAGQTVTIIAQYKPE
# Sequence of GST-BAI-1 Associated Protein PDZ domain 2 (Mus musculus (Mouse)), Q6RHR9 (Q6RHR9 455-558): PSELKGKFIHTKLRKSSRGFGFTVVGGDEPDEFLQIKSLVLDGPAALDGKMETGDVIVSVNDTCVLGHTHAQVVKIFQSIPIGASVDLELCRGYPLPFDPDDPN
# Sequence of GST-KIAA0147 PDZ domain 1 (Homo sapiens (Human)), Q14160 (Q14160 other isoform, or with tags, fused parts or gaps): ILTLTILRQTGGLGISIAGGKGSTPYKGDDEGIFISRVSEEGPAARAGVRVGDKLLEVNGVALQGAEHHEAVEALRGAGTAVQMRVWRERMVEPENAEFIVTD
binder,measurement,setting,value
B1,Classification,[1],1 A450 class
B2,Classification,[2],1 A450 class
same,Classification,[3],1 A450 class
same,Classification,[4],2 A450 class
same,Classification,[5],1 A450 class
same,Classification,[6],1 A450 class
B3,Classification,[7],1 A450 class
B4,Classification,[1],4 A450 class
same,Classification,[8],1 A450 class
same,Classification,[9],2 A450 class
B5,Classification,[10],1 A450 class
same,Classification,[11],1 A450 class
B6,Classification,[12],1 A450 class
B7,Classification,[1],1 A450 class
same,Classification,[9],1 A450 class
B8,Classification,[10],1 A450 class
same,Classification,[13],1 A450 class
same,Classification,[14],1 A450 class
same,Classification,[11],1 A450 class
B9,Classification,[7],2 A450 class
B10,Classification,[15],1 A450 class
same,Classification,[16],1 A450 class
B11,Classification,[10],1 A450 class
same,Classification,[14],1 A450 class
B12,Classification,[17],1 A450 class
same,Classification,[3],2 A450 class
same,Classification,[6],4 A450 class
B13,Classification,[18],1 A450 class
same,Classification,[1],1 A450 class
same,Classification,[9],1 A450 class
same,Classification,[19],1 A450 class
B14,Classification,[20],1 A450 class
B15,Classification,[21],1 A450 class
B16,Classification,[22],1 A450 class
same,Classification,[15],1 A450 class
same,Classification,[1],1 A450 class
same,Classification,[9],1 A450 class
same,Classification,[16],1 A450 class
same,Classification,[7],1 A450 class
B17,Classification,[1],2 A450 class
same,Classification,[9],1 A450 class
same,Classification,[19],1 A450 class
B18,Classification,[2],1 A450 class
same,Classification,[23],1 A450 class
B19,Classification,[24],2 A450 class
same,Classification,[1],5 A450 class
same,Classification,[9],5 A450 class
same,Classification,[19],3 A450 class
B20,Classification,[20],4 A450 class
B21,Classification,[25],1 A450 class
same,Classification,[23],1 A450 class
same,Classification,[16],2 A450 class
B22,Classification,[22],1 A450 class
same,Classification,[1],1 A450 class
same,Classification,[9],1 A450 class
same,Classification,[20],1 A450 class
B23,Classification,[22],1 A450 class
same,Classification,[15],1 A450 class
same,Classification,[1],1 A450 class
same,Classification,[9],1 A450 class
B24,Classification,[20],1 A450 class
